Test results as given in FireProtDB (doi:10.1111/j.1399-3011.1982.tb00898.x).

Settings: Escherichia coli (strain K12), Thermal, DSC, whole UniProt chain shown
[1] = pH 7, 25 °C, potassium phosphate 1 mM, reversible: yes(<50%)
[2] = pH 7, potassium phosphate 1 mM, reversible: yes(<50%)
[3] = pH 9.3, 25 °C, sodium tetraborate 1 mM, reversible: yes(>70%)
[4] = pH 9.3, sodium tetraborate 1 mM, reversible: yes(>70%)

B1: Tryptophan synthase alpha chain wild type, P0A877 (protein)
chain: MERYESLFAQLKERKEGAFVPFVTLGDPGIEQSLKIIDTLIEAGADALELGIPFSDPLADGPTIQNATLRAFAAGVTPAQCFEMLALIRQKHPTIPIGLLMYANLVFNKGIDEFYAQCEKVGVDSVLVADVPVEESAPFRQAALRHNVAPIFICPPNADDDLLRQIASYGRGYTYLLSRAGVTGAENRAALPLNHLVAKLKEYNAAPPLQGFGISAPDQVKAAIDAGAAGAISGSAIVKIIEQHINEPEKMLAALKVFVQPMKAATRS
Which “heat capacity change of unfolding” value [1] does the source give for B1 here?
The value was 2.9 kcal/mol/K.

And the unfolding free energy [1]?
The unfolding free energy was 8.4 kcal/mol.

And the Tm [2]?
The Tm was 62.4 °C.

What about the “heat capacity change of unfolding” value [2] of the same protein?
The value was 2.9 kcal/mol/K.

And the “heat capacity change of unfolding” value [3]?
Its value is 2.9 kcal/mol/K.

What about the unfolding free energy [3] of the same protein?
The unfolding free energy was 5.8 kcal/mol.

What about the Tm [4] of the same protein?
The Tm was 54.3 °C.

What about the “heat capacity change of unfolding” value [4] of the same protein?
The value was 2.9 kcal/mol/K.
